This passage reports Km and Vmax results from publication PMC6832383, “Co-Immobilization of Tri-Enzymes for the Conversion of Hydroxymethylfurfural to 2,5-Diformylfuran” (Molecules, 2019).

The test system of one series is T1, horseradish peroxidase.
T1 construct: gene PRXC1A
The series is described as follows: spectrophotometric initial rates at […] nm (purpurogallin), non-linear Michaelis-Menten fit. It is filed as biochemical, Armoracia rusticana. The note with it: free enzyme; co-substrate 10 mM H2O2; 100 mM phosphate pH 6.0; 30 °C; pyrogallol 1-8 mM.

The next series deals with COc1cccc(CO)c1. The series is described as follows: purified protein. The note with it: free enzyme, Tris-HCl 50 mM pH 7.1, 37 °C, substrate 3-60 mM.

One may read the Km as the concentration of substrate that gives half-maximal velocity. `Oc1cccc(O)c1O` [pyrogallol]: the Michaelis-Menten constant (Km) with horseradish peroxidase was found to be 2210 ± 40 µM.
The term Vmax denotes the rate approached at saturating substrate. On to “galactose oxidase (Fusarium graminearum)”, for which, in the series on COc1cccc(CO)c1, the Michaelis-Menten constant (Km) was 17600 ± 1300 µM and the Vmax was 216 µmol/min/mg.
